Here are results for three molecules from patent US20230416364A1 (Bristol-Myers Squibb, published 2023).

Sequences and labels used below:
B3: mouse IL-2 (ligand, UniProt P04351 21-169, looked up)
chain: APTSSSTSSSTAEAQQQQQQQQQQQQHLEQLLMDLQELLSRMENYRNLKLPRMLTFKFYLPKQATELKDLQCLEDELGPLRHVLDLTQSKSFQLEDAENFISNIRVTVVKLKGSDNTFECQFDDESATVVDFLRRWIAFCQSIISTSPQ

The target of the assay “mouse IL-2” is B3. The assay is described as follows: SPR, Biacore T200, 37° C., fusion captured by anti-mouse IgG on CM4 chip, mIL-2 as analyte. On the procedure:
Truncations of mCD25 are presented at FIG. 3A.
Unless otherwise indicated, binding kinetics were determined with a BIACORE® SPR surface plasmon resonance spectrometer (Biacore AB, Uppsala, Sweden). […] The assay temperature was 37° C. and the running buffer was HEPES buffered saline pH 7.4 supplemented with 0.05% (v/v) Tween-20 and 1 g/L BSA. Purified mPD1−mCD25 variants were captured on a Biacore™ CM4 chip with immobilized anti-mouse IgG polyclonal capture antibody. […] Between cycles, the capture surface was regenerated for three minutes with 10 mM Glycine pH 1.7. Double-referenced sensorgrams were fitted to a 1:1 Langmuir binding model with mass transport to determine equilibrium dissociation constants (KD), as well as association (kₐ) and dissociation (kd) rate constants where appropriate.

Assay [1] has as its target T1, human CD25 (IL-2R alpha) on HEK-Blue IL-2 reporter cells (human, UniProt P01589 22-272).
T1 sequence: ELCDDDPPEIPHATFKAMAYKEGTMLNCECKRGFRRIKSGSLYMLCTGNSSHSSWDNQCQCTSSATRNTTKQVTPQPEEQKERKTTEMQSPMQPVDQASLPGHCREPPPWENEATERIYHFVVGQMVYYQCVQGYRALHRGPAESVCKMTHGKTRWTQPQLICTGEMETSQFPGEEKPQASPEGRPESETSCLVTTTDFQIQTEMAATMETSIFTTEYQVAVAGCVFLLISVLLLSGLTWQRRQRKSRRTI
The assay is described as follows: cell-based or functional assay.

In assay [2] the target is fully mCD25 modified anti-mPD-1 antibody 4H2, (4H2 mG1 D265A KK CD25.b)2. The assay is described as follows: cell-based or functional assay.
Assay [3] has as its target hemi-mCD25 modified anti-mPD-1 antibody 4H2 (4H2 mG1 D265A KK CD25.b+4H2 mG1 D265A blank). The assay is described as follows: cell-based or functional assay.

B1: anti-mPD-1 mAb 4H2 fused to mCD25 variant a (full-length mCD25 ECD) (other)
heavy: QVQLKESGPGLVQPSQTLSLTCTVSGFSLTSYNVHWVRQPPGKGLEWMGGMRYNEDTSYNSALKSRLSISRDTSKNQVFLKMNSLQTDDTGTYYCTRDAVYGGYGGWFAYWGQGTLVTVSSAKTTPPSVYPLAPGSAAQTNSMVTLGCLVKGYFPEPVTVTWNSGSLSSGVHTFPAVLESDLYTLSSSVTVPSSTWPSETVTCNVAHPASSTKVDKKIVPRDCGCKPCICTVPEVSSVFIFPPKPKDVLTITLTPKVTCVVVAISKDDPEVQFSWFVDDVEVHTAQTQPREEQFNSTFRSVSELPIMHQDWLNGKEFKCRVNSAAFPAPIEKTISKTKGRPKAPQVYTIPPPKKQMAKDKVSLTCMITDFFPEDITVEWQWNGQPAENYKNTQPIMKTDGSYFVYSKLNVQKSNWEAGNTFTCSVLHEGLHNHHTEKSLSHSPGGGGSGGGGSGGGGSELCLYDPPEVPNATFKALSYKNGTILNCECKRGFRRLKELVYMRCLGNSWSSNCQCTSNSHDKSRKQVTAQLEHQKEQQTTTDMQKPTQSMHQENLTGHCREPPPWKHEDSKRIYHFVEGQSVHYECIPGYKALQRGPAISICKMKCGKTGWTQPQLTCVDEREHHRFLASEESQGSRNSSPESETSCPITTTDFPQPTETTAMTETFVLTMEYK
light: DTVLTQSPALAVSLGQRVTISCKASETVSSSMYSYIHWYQQKPGQQPKLLIYRASNLESGVPARFSGSGSGTDFTLTIDPVEADDVATYFCQQSWNPWTFGGGTKLELKRADAAPTVSIFPPSSEQLTSGGASVVCFLNNFYPKDINVKWKIDGSERQNGVLNSWTDQDSKDSTYSMSSTLTLTKDEYERHNSYTCEATHKTSTSPIVKSFNRNEC
notes: also called 4H2-mCD25 variant a; mPD1-mCD25 variant a
As for B1, the Kd in the assay with mouse IL-2 was found to be 14 nM.

B2: anti-mPD-1 mAb 4H2 fused to mCD25 variant b (other)
heavy: QVQLKESGPGLVQPSQTLSLTCTVSGFSLTSYNVHWVRQPPGKGLEWMGGMRYNEDTSYNSALKSRLSISRDTSKNQVFLKMNSLQTDDTGTYYCTRDAVYGGYGGWFAYWGQGTLVTVSSAKTTPPSVYPLAPGSAAQTNSMVTLGCLVKGYFPEPVTVTWNSGSLSSGVHTFPAVLESDLYTLSSSVTVPSSTWPSETVTCNVAHPASSTKVDKKIVPRDCGCKPCICTVPEVSSVFIFPPKPKDVLTITLTPKVTCVVVAISKDDPEVQFSWFVDDVEVHTAQTQPREEQFNSTFRSVSELPIMHQDWLNGKEFKCRVNSAAFPAPIEKTISKTKGRPKAPQVYTIPPPKKQMAKDKVSLTCMITDFFPEDITVEWQWNGQPAENYKNTQPIMKTDGSYFVYSKLNVQKSNWEAGNTFTCSVLHEGLHNHHTEKSLSHSPGGGGSGGGGSGGGGSELCLYDPPEVPNATFKALSYKNGTILNCECKRGFRRLKELVYMRCLGNSWSSNCQCTSNSHDKSRKQVTAQLEHQKEQQTTTDMQKPTQSMHQENLTGHCREPPPWKHEDSKRIYHFVEGQSVHYECIPGYKALQRGPAISICKMKCGKTGWTQPQLTCVDEREHHRFLASEESQGSRNSSPESETSCPITTTDFPQP
light: DTVLTQSPALAVSLGQRVTISCKASETVSSSMYSYIHWYQQKPGQQPKLLIYRASNLESGVPARFSGSGSGTDFTLTIDPVEADDVATYFCQQSWNPWTFGGGTKLELKRADAAPTVSIFPPSSEQLTSGGASVVCFLNNFYPKDINVKWKIDGSERQNGVLNSWTDQDSKDSTYSMSSTLTLTKDEYERHNSYTCEATHKTSTSPIVKSFNRNEC
notes: also called 4H2-mCD25 variant b; mPD1-mCD25 variant b
Turning to B2, the Kd with mouse IL-2 is 14 nM.

In the case of B3, the “EC50 (read off the curve); SEAP reporter (ABS620), HEK-Blue IL-2 CD25+ cells” value in assay [1] is approximately 0.05 nM. Also, in assay [2], the “EC50 of mIL-2 (read off the curve) with 260 pM fusion; SEAP reporter (ABS620), CD25- mPD-1+ HEK-Blue IL-2 cells” value was approximately 200 pM and the “EC50 of mIL-2 (read off the curve) with 2.6 nM fusion; SEAP reporter (ABS620), CD25- mPD-1+ HEK-Blue IL-2 cells” value is approximately 0.1 nM. In addition, in assay [3], the “EC50 of mIL-2 (read off the curve) with 280 pM fusion; SEAP reporter (ABS620), CD25- mPD-1+ HEK-Blue IL-2 cells” value is approximately 300 pM and the “EC50 of mIL-2 (read off the curve) with 2.8 nM fusion; SEAP reporter (ABS620), CD25- mPD-1+ HEK-Blue IL-2 cells” value was approximately 0.1 nM.
